In the test the target is murine CD47 on mouse pancreatic beta islet cells (MIN6) (murine) (UniProt Q61735). Briefly: cell-based or functional assay.
Chain of UniProt Q61735 (Q61735 19-303): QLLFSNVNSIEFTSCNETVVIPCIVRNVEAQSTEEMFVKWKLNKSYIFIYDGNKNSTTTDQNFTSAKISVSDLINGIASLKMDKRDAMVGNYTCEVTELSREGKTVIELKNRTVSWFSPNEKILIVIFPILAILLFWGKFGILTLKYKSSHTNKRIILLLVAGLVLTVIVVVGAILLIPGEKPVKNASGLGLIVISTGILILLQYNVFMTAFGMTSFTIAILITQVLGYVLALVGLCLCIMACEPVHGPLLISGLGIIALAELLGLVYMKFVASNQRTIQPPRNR

As for “anti-CD47 blocking antibody (clone MIAP301, SC-12731, Santa Cruz Inc.)”, the relative increase in insulin protein content in glucose stimulated mouse pancreatic beta islet cells relative to vinculin (SDS-PAGE band density) is more than 2 fold.
